In patent US20170369592A1, “NOVEL ANTI-FIBROBLAST ACTIVATION PROTEIN (FAP) ANTIBODIES AND USES DERIVED THEREOF” (Mabimmune Diagnostics AG, priority 2015, published 2017):

Experiments:
[1] = biological target: T1, rhFAP (Homo sapiens, UniProt Q12884); assay: Mechanism of inhibition of rhuFAP-mediated PEP (Z-Gly-Pro-AMC) cleavage; format: biochemical; details: 0, 10, 100, 1000 nM antibody, 20-100 μM Z-Gly-Pro-AMC, Lineweaver-Burk plot
T1 construct: purchased Sino Biologicals 10464-H07H
T1 sequence (Q12884 26-760 limits assumed): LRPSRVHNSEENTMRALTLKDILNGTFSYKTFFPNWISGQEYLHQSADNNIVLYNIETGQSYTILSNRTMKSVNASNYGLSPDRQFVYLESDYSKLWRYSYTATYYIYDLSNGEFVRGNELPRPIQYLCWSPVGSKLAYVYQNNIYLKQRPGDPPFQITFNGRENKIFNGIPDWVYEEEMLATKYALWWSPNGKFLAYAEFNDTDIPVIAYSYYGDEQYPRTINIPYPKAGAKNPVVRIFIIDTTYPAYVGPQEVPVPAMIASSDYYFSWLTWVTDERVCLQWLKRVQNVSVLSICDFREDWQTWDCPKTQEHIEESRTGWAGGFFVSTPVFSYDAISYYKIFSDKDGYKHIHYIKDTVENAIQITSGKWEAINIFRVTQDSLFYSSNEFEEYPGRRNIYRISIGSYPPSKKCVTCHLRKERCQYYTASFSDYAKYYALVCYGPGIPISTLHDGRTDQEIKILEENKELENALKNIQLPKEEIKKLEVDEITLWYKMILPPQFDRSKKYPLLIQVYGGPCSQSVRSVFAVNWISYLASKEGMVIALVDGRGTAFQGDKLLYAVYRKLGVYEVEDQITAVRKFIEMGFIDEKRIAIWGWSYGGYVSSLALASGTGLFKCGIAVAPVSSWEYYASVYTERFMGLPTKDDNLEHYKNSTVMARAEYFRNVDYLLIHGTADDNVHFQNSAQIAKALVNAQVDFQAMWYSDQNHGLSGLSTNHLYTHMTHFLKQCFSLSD
Method: A black flat bottom standard 96-well ELISA plate was blocked for 1 hr at 37° C. using sterile blocking buffer: 5% bovine serum albumin (BSA) in phosphate buffered saline (PBS). 10 μL of recombinant human FAP solution: 0.4 nM recombinant human FAP (Sino Biologicals, 10464-H07H), in 225 mM Sodium phosphate buffer, pH 7.4) was added to each well. Then, 80 μL of NI-206.82C2 at the indicated concentrations in PBS were added to the wells incubated for 1 hr at 37° C. Then, 10 μL of fluorogenic substrate solution (Z-Gly-Pro-AMC in 40% methanol and 60% 25 […]) was added to each well. The fluorescence intensity was measured at 360 nm excitation and 460 nm emission every 3 min over a total reading time of 2 hr.

[2] = biological target: T2, recombinant human FAP (rhFAP) (Homo sapiens, UniProt Q12884); assay: Affinity (EC50) sandwich ELISA on SB9 oligopeptidase family; format: binding; details: HRP-labelled antibody 0.004-400 nM
T2 construct: purchased Sino Biologicals 10464-H07H
T2 sequence (Q12884 26-760 limits assumed): T1 sequence (Q12884 26-760 limits assumed)
Method: To determine the binding efficiency and inhibitory ability of NI-206.82C2 against other members of the SB9 oligopeptidase family that have sequence similarity to FAP, indirect ELISA and inhibition assays were performed on active enzyme targets. Active recombinant human enzymes evaluated in this assay include: Fibroblast Activation Protein (FAP; Sino Biologicals, 10464-H07H), Dipeptidyl Peptidase IV (DPPIV, BPS Bioscience 80040), Dipeptidyl Peptidase 8 (DPP8, BPS Bioscience 80080), Dipeptidyl Peptidase 9 (DPP9, BPS Bioscience […]), and Prolyl Oligopeptidase/Prolyl Endopeptidase (POP/PREP, BPS Bioscience 80105). Each recombinant peptidase was expressed with a purification tag, and attached to the 96 well ELISA plate using either a mouse anti-Histidine antibody (CloneTech), or a mouse anti-Glutathione S-transferase (GST, Sino Biologicals, 111213-MM02) tag antibody. Each enzyme was validated to bind and remained active on the ELISA plate using enzyme specific fluorogenic substrates. H-Gly-Pro-AMC (ATT Bioquest, 13450) was used to validate the presence and activity of DPP4, DPP9, and DPP8. […] Following a washing step, bound antibody was detected using 3,3′,5,5′-Tetramethylbenzidine (TMB) substrate. The reaction was stopped after 10 minutes by adding 2N H2SO4 and the resulting change in optical density was quantified using an ELISA plate reader at […] absorbance (FIG. 7 B).

mechanism of inhibition of FAP-mediated PEP cleavage [1]: non-competitive inhibitor | binding to rhFAP [2]: selectively binds
B1: NI-206.82C2: recombinant human memory B cell-derived monoclonal anti-FAP IgG1 antibody, variable regions in FIG. 1A, FAP inhibitory (antibody, V domains shown)
VH: QVQLQQSGPGLVKPSQTLSLTCAISGDSVSSNSVTWNWIRQSPSRGLEWLGRTYYRSKWYNDYAVSVKGRITINPDTSKNQFYLQLKSVTPEDAAVYYCARDSSILYGDYWGQGTLVTVSS
VL: QAVLTQPSSLSASPGASASLTCTLPSGINVGTYRIFWFQQKPGSPPQYLLSYKSDSDNHQGSGVPSRFSGSKDASANAGILLISGLQSEDEADYYCMIWHSSAWVFGGGTKLTVL
